Data: patent publication US6596319B2, “Immunomodulating compositions for treatment of immune system disorders” (Lorus Therapeutics Inc., priority 2001, dated 2003)
Like-named read-outs stand apart in the source and are kept apart here.

Experiments:
Chang hepatoma cells [1] = assay: Monocyte/Macrophage Cytotoxicity Assay to cell line (51Cr release); settings: peripheral blood monocytes from cancer patients; activator + Indomethacin (up to 5 ng/ml)
peritoneal macrophages [2] = assay: TNF release from macrophages harvested from treated mice; format: in vivo, C57BL/6 mice; settings: mice injected with nothing; in vitro stimulant IFN-γ, 24 hours
Description: (§1) In vivo production of TNF-α over 72 hours was studied on macrophages harvested from C57BL/6 mice that, prior to harvest, were treated with nothing, injected intraperitoneally 72 hours previously with 1.5 and 4% protease peptone, or injected intraperitoneally 72, 48, or 24 hours previously with 1.0 ml Virulizin™ diluted 1:10 in PBS. The macrophage monolayers were treated in vitro for 24 hours with IFN-γ (50 μ/ml), LPS only (5 ng/ml), or the combination thereof. TNF and NO were determined as recited above.
As described, the release of TNF-α from macrophages was examined in the absence of a stimulus or with IFN-γ, LPS, or LPS/IFN-γ after 24 hrs in vitro culture. […] Likewise, there was a synergistic effect of LPS and IFN-γ on harvested macrophages that were stimulated 24 and 48 hrs but not 72 hrs before testing.

peritoneal macrophages [3] = assay: NO release from macrophages harvested from treated mice; format: in vivo, C57BL/6 mice; settings: mice injected with nothing; in vitro stimulant IFN-γ
Description: as §1
In vivo production of NO over 72 hrs was studied with macrophage cells and tests under the same conditions described above with respect to TNF-α production. There was a small spontaneous release of NO measured at 24 and 48 hrs after intraperitoneal injection of VIRULIZIN™ (hereinafter IP Virulizin™). […] The harvested macrophages that had received IP VIRULIZIN™ 72 hrs before responded no differently than macrophages that had no VIRULIZIN™ pretreatment. […] The maximum response was with macrophages pretreated with VIRULIZIN™ 48 hrs before harvesting and testing.

peritoneal macrophages [4] = assay: In vitro stimulation of protease peptone peritoneal macrophages: TNF (ELISA); format: cell-based, C57BL/6 mice; settings: stimulant alone; 24 hours of in vitro culture
Description: (§2) Peritoneal macrophages were harvested from C57BL/6 mice 72 hours after intraperitoneal injection of 1.5 ml of 4% protease peptone. The macrophages were then stimulated in vitro with medium alone, 50 ng LPS, or VIRULIZIN™. Measurements of the stimulation was done with respect to TNF (by ELISA) and NO (by spectrophotometric assay using the Greiss reagent) levels in duplicate experiments. Standard error of the mean between duplicate experiments was less than 10%. […] Nitric oxide production was zero.
In vitro synergy of Virulizin™ with LPS for TNF-α release was also addressed. Peritoneal macrophages were harvested from C57BL/6 mice after the same aforementioned treatment. The macrophages were then stimulated with 50 ng LPS alone or LPS with different dilutions of VIRULIZIN™. As above, TNF was determined via ELISA. As noted in Table XIX, LPS alone induces about 2900 pg/ml of TNF-α release from mouse peritoneal macrophages in vitro compared to 262 pg/ml for medium. When LPS is combined with VIRULIZIN™, there is about an 800 pg/ml increase in TNF-alpha release at dilutions of VIRULIZIN™ 1:5 and 1:10 and enhanced release to at least 1:40.
In vitro synergy of Virulizin™ with IFN-γ for TNF-α release was studied, using the same peritoneal mouse macrophages derived from C57BL/6 mice treated as above. […] The same macrophages stimulated with either LPS or IFN-γ release almost 3000 pg/ml of TNF-α. […]

peritoneal macrophages [5] = assay: In vitro stimulation of protease peptone peritoneal macrophages: NO (Greiss reagent); format: cell-based, C57BL/6 mice; settings: stimulant alone
Description: as §2
In vitro synergy of Virulizin™ with LPS for nitric oxide (NO) was addressed in the same procedure as above, except NO was determined in the supernatant of the treated macrophages. As above, the assay for NO is spectrophotometric and uses a Greiss reagent. As noted in the table above, LPS causes some release of NO (9 μm). VIRULIZIN™ in synergy with LPS induces a marked increase in NO production (13-27 μm) to dilutions of 1:40.
In vitro synergy of Virulizin™ with IFN-γ for NO release was studied, using the same peritoneal mouse macrophages derived from C57BL/6 mice treated as above. The data are included in the table above concerning “Synergistic Combinations.” As shown, LPS and IFN-γ alone each enhanced NO production (9 and 7 μm, respectively). VIRULIZIN™ added to IFN-γ induced a marked increase in NO production (47-57 μm) that almost equaled the combination of LPS and IFN-γ (74 μM). […]

Chang hepatoma cells [6] = test system: Chang hepatoma cells

## GM-CSF: granulocyte macrophage colony stimulating factor
Chang hepatoma cells [1]
  % Cytotoxicity: 17.8 ± 8%

## Interleukin-12: interleukin-12
Autologous tumor cells
  % Tumor Cytotoxicity (E/T = 15/1): 11%

## IFN-γ: gamma interferon
Peritoneal macrophages [2]
  TNF: 402 pg/mL
Peritoneal macrophages [3]
  NO: 25.8 ± 1.6 µM
Peritoneal macrophages [4]
  TNF-α release: ~3000 pg/mL
Peritoneal macrophages [5]
  NO production: 7 μm

B1: Monocyte-CSF: monocyte colony stimulating factor (protein, UniProt P09603 33-554, looked up)
Macrophage colony-stimulating …: EEVSEYCSHMIGSGHLQSLQRLIDSQMETSCQITFEFVDQEQLKDPVCYLKKAFLLVQDIMEDTMRFRDNTPNAIAIVQLQELSLRLKSCFTKDYEEHDKACVRTFYETPLQLLEKVKNVFNETKNLLDKDWNIFSKNCNNSFAECSSQDVVTKPDCNCLYPKAIPSSDPASVSPHQPLAPSMAPVAGLTWEDSEGTEGSSLLPGEQPLHTVDPGSAKQRPPRSTCQSFEPPETPVVKDSTIGGSPQPRPSVGAFNPGMEDILDSAMGTNWVPEEASGEASEIPVPQGTELSPSRPGGGSMQTEPARPSNFLSASSPLPASAKGQQPADVTGTALPRVGPVRPTGQDWNHTPQKTDHPSALLRDPPEPGSPRISSLRPQGLSNPSTLSAQPQLSRSHSSGSVLPLGELEGRRSTRDRRSPAEPEGGPASEGAARPLPRFNSVPLTDTGHERQSEGSFSPQLQESVFHLLVPSVILVLLAVGGLLFYRWRRRSHQEPQRADSPLEQPEGSPLTQDDRQVELPV
Autologous tumor cells
  % Tumor Cytotoxicity (E/T = 15/1): 3%
Chang hepatoma cells [6]
  % Cytotoxicity: 14.31 ± 3%
